Experimental data reported in the nanobody polyreactivity screen of Harvey et al. (2022).

Test: yeast display, Sf9 membrane polyspecificity reagent, FACS + sequencing; frameworks hold sequencing errors
Summary of the method: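 After 36–48 hours of galactose induction, yeast (Saccharomyces cerevisiae BJ5465) displaying a synthetic nanobody library were stained at 4 °C for 1 hour with 10% biotinylated, detergent-solubilized Sf9 membrane reagent. Streptavidin microbeads enriched the stained cells before FACS sorting into low and high (top ~1%) gates on anti-HA and streptavidin fluorescence. Each clone's polyreactivity label reflects its gate of origin.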

| Sequence | polyreactivity (PSR sort gate) |
| --- | --- |
| QVQLVESGGGLVQAGGSLRLSCAASGYTFDPNAMGWYRQAPGKERELVAAISRIGGSTYYADSVKGRFTISRDNAKNTVYLQMKSLKPEDTAVYYCAVDWYLTGHWADDYWGQGTQVTVSS | low polyreactivity |
| QVQLVESGGGLVQAGGSLRLSCAASGYTFDTNVMGWYRQEPGKERELVATITGSGGSTYYADSVKGRFTISRDNAKNTVYLEMNSLKPEDTAVYYCAAYCYRYSFHWLKRWPYDWGQGTQVTVSS | high polyreactivity |
| QVQLVESGGGLVQAGGSLRLSCAASGYTFDYYAMGWYRQAPGKERELVAAIRRGGSTYYADSVKGRFTISRDNAKNTVYLQMNSLKPEDTAVYYCAAVIYRDGTIYDYWGQGTQVTVSS | high polyreactivity |
| QVQLVESGGGLVQAGGSLRLSCAASGYTFEDNAMGWYRQAPRKESELVAAIDWSGDSTYYADSVKGRFTISRDNAKNTVYLQMNSLKPEDTAVYYCAADYTTWTDMDYWGQGTQVTVSS | low polyreactivity |
| QVQLVESGGGLVQAGGSLRLSCAASGYTFFFNVMGWYRQAPGKVRELVAAISYSGGSTNYADSVKGRFTISRDNAKNTVYLQMNSLKPEDTAVYYCNARSVSRNGYEDVYWGQGTQVTVSS | low polyreactivity |
| QVQLVESGGGLVQAGGSLRLSCAASGYTFFYMGWYRQAPGKEREFVAVITYSGGSTYYADSVKGRFTISRDNAKNTVYLQMNSLKPEDTAVYYCAAAVWHYGRPGYLDSGYDYWGQGTQVTVSS | low polyreactivity |
| QVQLVESGGGLVQAGGSLRLSCAASGYTFFYYAMGWYRQAPGKERELVASISWNGGSTYYADSVKGRFTISRDNGKNTVYLQMNSLKPEDTAVYYCAADSPRPRLTSYGYIGGEYYYWGQGTQVTVSS | low polyreactivity |
| QVQLVESGGGLVQAGGSLRLSCAASGYTFGHYVMGWYRQAPGKERELVAAISRSGGSTYYADSVKGRFTISRDNAKNTVYLQMNSLKPEDTAVYYCARGRIGGGAPGDKSSLNYYYWGQGTQVTVSS | high polyreactivity |
| QVQLVESGGGLVQAGGSLRLSCAASGYTFGSYAMGWYRPAPGKERELVAAITPGGSTYYADSVKGRFTISRDNAKNTVYLQMNSLKPEDTAVYYCNRATRYWKAYYWFKTMDYWGQGTQVTVSS | high polyreactivity |
| QVQLVESGGGLVQAGGSLRLSCAASGYTFGYYALGRYRPAPGKERELVAAISSGGITKYADSVKGRFTISRENAKNTVYLQMNSLKPEDTAVYYCAASWYRYRFIRYDYWGQGTQVTVSS | high polyreactivity |
| QVQLVESGGGLVQAGGSLRLSCAASGYTFGYYAMGWYRQAPGKERELVAAISYSGGNTYYADSVKGRFTISRDNAKNTVYLQMNSLKPEDTAVYYCNKRYWVRTGKVSSYAYWGQGTQVTVSS | high polyreactivity |
| QVQLVESGGGLVQAGGSLRLSCAASGYTFKAYAMGWYRQAPGKERELVAAISWSGARTYYADSVKGRFTISRDNAKNTVYLQMNSLKPEDTAVYYCAASNAVYAGRSYRDEFWGQGTQVTVSS | high polyreactivity |
| QVQLVESGGGLVQAGGSLRLSCAASGYTFKRNDMGWYRQAPGKERELVAAISKSGGSTYYADSVKGRFTISRDNAKNTVYLQMNSLKPEDTAVYYCPGPLPYYGQYDYWGQGTQVTVSS | low polyreactivity |
| QVQLVESGGGLVQAGGSLRLSCAASGYTFKYNAMGWYRQAPGKERELVAAISSRGDRTYYADSVKGRFTISRDNAKNTVYLQMNSLKPEDTVVYYCNKVARPRSRNDSWGQGTQVTVSS | high polyreactivity |
| QVQLVESGGGLVQAGGSLRLSCAASGYTFLDYAMGWYRQAPGKERELFAAINSGGSTYYADSVKGRFTISRDNAKNSVYFQMNSLNPEDTAVSYCAREDYVSYRLLYYLFDYWGQGTQVTVSS | low polyreactivity |
| QVQLVESGGGLVQAGGSLRLSCAASGYTFLVNAMGWYRQAPGKERELVAAISSGGSTYYADSVKGRFTISRDNAKNTVYLQMNSLKPEDTAVYYCAAPTDFLFWEFDYWGQGTQVTVSS | low polyreactivity |
| QVQLVESGGGLVQAGGSLRLSCAASGYTFNRNAMGWYIQAPGKERELVASITRRGGSTYYADSVKGRFTISRDNAKNTVYLQMNSLKPEDTAVYYCAVESIRTGDYWGQGTQVTVSS | high polyreactivity |
| QVQLVESGGGLVQAGGSLRLSCAASGYTFNRYAMGWYRQAPGKERELVAAITRGGTTYYADSVKGRFTISRDNAKNTVYLQMNSLKPEDTAVYYCNKFQPSGQYFKMGYWGQGTQVTVSS | high polyreactivity |
| QVQLVESGGGLVQAGGSLRLSCAASGYTFPIYAMGWYRQAPGKEREVVATISSGGRTNYADSVKGRFTISRDNAKNTVYLQMNSLKPEDTAVYYCNARRLGWHALYLYDYWGQGTQVTVSS | high polyreactivity |
| QVQLVESGGGLVQAGGSLRLSCAASGYTFPKYAMGWYRQAPGKERELVAAITKRGGRTYYADSVKGRFTISRDNAKNTVYLQMNSLKPEDTAVYYCAVDLDGPEYSQVHYDYWGQGTQVTVSS | high polyreactivity |
| QVQLVESGGGLVQAGGSLRLSCAASGYTFPLYAMGLYRQAPGKERELVADINIGGASTYYADSVKGRFTISRDNAKNTVYLQMNSLKPEDTAVYYCAKEYYDGYFPTFDYDYWGQGTQVTVSS | low polyreactivity |
| QVQLVESGGGLVQAGGSLRLSCAASGYTFPLYAMGWYIQAPGKETELVADINIGGASTYYADSVKGRFTISRDNAKNTVYLQMNSLKPEDTAVYYCAKEYYDGYFPTLDYDYWGQGTQVTVSS | low polyreactivity |

| Sequence | polyreactivity (PSR sort gate) |
| --- | --- |
| QVQLVESGGGLVQAGGSLRLSCAASGYTFPPNAMGWYSQAPGKERELVAAISWRGDSTYYADSVKGRFTISRDNAKNTVYLQMISLKPEDTAVYYCAAGYRRGPDIYYYWGQVTQVTVSS | low polyreactivity |
| QVQLVESGGGLVQAGGSLRLSCAASGYTFPRNAMGWYRQEPGKERELVAAISASGGRTSYADSVKVRFTISRDNAKNTVYLQMNSLKPEDTAVYYCAAPFLRRIGYPRSYDYWGQGTQVTVSS | high polyreactivity |
| QVQLVESGGGLVQAGGSLRLSCAASGYTFPYYAMGWYIQAPGKERELVAAISRSGGTTYYADSVKGRFTISRDNAKNTVYLQLNSLKPEDTAVYYCAALYGSRSTYHMDDYWGQGTQVTVSS | high polyreactivity |
| QVQLVESGGGLVQAGGSLRLSCAASGYTFQKYAMGWYRQAPGKERESVAAITRSGTRTYYADSVKGRFTISRDNAKNTVYLQMNSLKPEDTAVYYCAAETYYSIYDYWGQGTQVTVSS | high polyreactivity |
| QVQLVESGGGLVQAGGSLRLSCAASGYTFQYYTMGWYRQAPGKERELVAAISSSGGRTYYADSVKGRFTISRDNAKNTVYLQMNSLKPEDTAVYYCAATYSYRSDYYSWGQGTQVTVSS | high polyreactivity |
| QVQLVESGGGLVQAGGSLRLSCAASGYTFRANGMGWYRQAPGKERELVAAITQSVDNTYYADSVKGRFTISRDNAKNTVYLQVNSLKPEDTAVYYCATEYGQTGYPQMGYWGQGTQVTVSS | low polyreactivity |
| QVQLVESGGGLVQAGGSLRLSCAASGYTFRGYAMGWYRQAPGKEREFVAAINWSDGSTYYADSVKGRFTISRDNAKNTVYLQMNSLKPEDTAVYYCNADQYYRVPDNYWGQGTLVTVSS | low polyreactivity |
| QVQLVESGGGLVQAGGSLRLSCAASGYTFRGYAMGWYRQAPGKEREFVAAINWSDGSTYYADSVKGRFTISRDNAKNTVYLQMNSLKPEDTAVYYCNADQYYRVPDNYWGQGTQVTVSS | low polyreactivity |
| QVQLVESGGGLVQAGGSLRLSCAASGYTFRNNAMGWYRQAPGKEREFVAAISRSGARTYYADSVKGRFTISRDNAKNTVYLQMNSLKPEDTAVYYCAARESFEYDSWGQGTQVTVSS | high polyreactivity |
| QVQLVESGGGLVQAGGSLRLSCAASGYTFRQYTIGWYRPAPGKERELVDAISRSGGSTYYADSVKGRFTISRDNAKNTVFLQMNSLKPEDTAVYYCNAEGYGRTDGFGYDYWGQGTQVTVSS | high polyreactivity |
| QVQLVESGGGLVQAGGSLRLSCAASGYTFRYYAMGWYRQAPGKERELVAAISRSGGSTYYADSVKGRFTISRDNAKNTVSLQMNSLKPEDTAVYYCAVALARPYEDYDYWGQGTQVTVSS | high polyreactivity |
| QVQLVESGGGLVQAGGSLRLSCAASGYTFRYYVMGWYRQAPGKERELDAAISQRGGSTYYADSVKGRFTISRDNAKNTVYLQMNSLKPEDTAVYYCAASYSTYASRGYGYWGQGTQVTVSS | high polyreactivity |
| QVQLVESGGGLVQAGGSLRLSCAASGYTFSDNAIGWYRQAPGKERELVAAITSGVSTYYADSVKGRFTISRDNAKNTVYLQMNSLKPEDTAVYYCAKDVAVYADLYQGAPYGYWGQGTQVTVSS | low polyreactivity |
| QVQLVESGGGLVQAGGSLRLSCAASGYTFSHYDMGWYRQAPGKERELVAGITWSGGSTYYADSVKGRFTISRDNAKNTVYLQMNSLIPEDTSVYYCAAKYYWYYSYSGIPLFDYWGQGTQVTVSS | low polyreactivity |
| QVQLVESGGGLVQAGGSLRLSCAASGYTFSNNAMGWYRQAPGKERELVAAISRSTGSTYYADSVKGRFTISRDYAKNTVYLQMNSLKPEDTAVYYCAVYRHGYGYNYWGQGTQVTVSS | high polyreactivity |
| QVQLVESGGGLVQAGGSLRLSCAASGYTFSQNAMGWYRQAPGKEREVVAGITTRGTTTYYADSVKGRFTISRDNAKNTVYLQMNSLKPEDTPVYYCAADNSYTDNYWGQGTQVTVSS | low polyreactivity |
| QVQLVESGGGLVQAGGSLRLSCAASGYTFSYYAMGWYRQAPGKERELVAAITSTGSTYYADSVKGRFTISRDNAKNTDYFQMNSLKPEDTEVYYCNVDVATVGPVDYWGQGTQVTVSS | low polyreactivity |
| QVQLVESGGGLVQAGGSLRLSCAASGYTFTGNAMGWYRQAPGKERELVARITSVGRTYYADSVKGRFTISRDNAKNTVYLQMNSLKPEDTAVYYCAAQPYRYRYWPRVGGYDYWGQGTQVTVTS | high polyreactivity |
| QVQLVESGGGLVQAGGSLRLSCAASGYTFTINAMGWYRQAPGKERELVAAISWNGGRTYYADAVKGRFTISRDNAKNTVYLQMNSLKPEDTAVCYCNADTYAAGDYWGQGTQVTVSS | high polyreactivity |
| QVQLVESGGGLVQAGGSLRLSCAASGYTFTTYAMGWYRQAPGKEREFVASIRWRGGNTYYADSVKGRFTISRDNAKNTVYLQMNSQKREDTAVYYCARRVDYISSKYGYWGQGTQVTVSS | high polyreactivity |
| QVQLVESGGGLVQAGGSLRLSCAASGYTFVDNAMGWYRQAPGKERELVAAINWDGASTYADSVKGRFTISRDNAKNTVYLQMNSLKPEDTAVYYCTASGKDIFNYVYQGYDYWGQGTQVTVSS | low polyreactivity |
